For this assay, the target named is T1, eNOS (Bos taurus, UniProt P29473, DEL841-841).
T1 construct: made in house; host or cells: E. coli BL21 (pCWori+)
Briefly: NO synthase activity per heme of eNOS mutants. The format is biochemical, bovine. As to conditions: fully activated state (Ca+2/CaM). Here is the method:
Expression and purification of wild type and mutant bovine eNOS and rat nNOS. Expression and purification of bovine eNOS and rat nNOS were performed using procedures similar to those previously described (Martasek, P.,et al., (1996) Biochem Biophys Res Commun. 219(2); 359-65). Transformed cells were broken with a French press, and after centrifugation to remove cell debris the supernatant was loaded on a 2′5′ADP affinity column, washed, and eluted with 2′AMP as described (id). […] Enzyme sample concentrations were determined on the basis of heme concentration, except in heme free preparations, where the flavin concentration was measured. UV-visible absorbance spectra were recorded on an Aminco DW-2000 spectrophotometer.
Nitric Oxide production was assayed using the Griess assay as adapted for microtiter plates (Gross, S. S. (1996) Methods Enzymol. 268:159-68); calcium dependence was measured using EDTA as a Ca+2 buffer system. […] NADPH-dependent cytochrome c reduction was measured spectrophotometrically as described by McMillan et al (McMillan, K., et al., (1992) Proc Nat. Acad. Sci. U.S.A. 89, 11141-11145), adapted to 96-well plate microtiter plates. […] Cytochrome c reduction was monitored at 550 nm (ε=2.1×104/M). […] Assays were performed on a SpectraMAX plate reader (Molecular Devices).

B1: G841 deletion mutant: bovine eNOS small insertion mutant with G841 deleted (protein, UniProt P29473 2-1205, looked up, variant G841*)
Nitric oxide synthase 3: GNLKSVGQEPGPPCGLGLGLGLGLCGKQGPASPAPEPSRAPAPATPHAPDHSPAPNSPTLTRPPEGPKFPRVKNWELGSITYDTLCAQSQQDGPCTPRCCLGSLVLPRKLQTRPSPGPPPAEQLLSQARDFINQYYSSIKRSGSQAHEERLQEVEAEVASTGTYHLRESELVFGAKQAWRNAPRCVGRIQWGKLQVFDARDCSSAQEMFTYICNHIKYATNRGNLRSAITVFPQRAPGRGDFRIWNSQLVRYAGYRQQDGSVRGDPANVEITELCIQHGWTPGNGRFDVLPLLLQAPDEAPELFVLPPELVLEVPLEHPTLEWFAALGLRWYALPAVSNMLLEIGGLEFSAAPFSGWYMSTEIGTRNLCDPHRYNILEDVAVCMDLDTRTTSSLWKDKAAVEINLAVLHSFQLAKVTIVDHHAATVSFMKHLDNEQKARGGCPADWAWIVPPISGSLTPVFHQEMVNYILSPAFRYQPDPWKGSATKGAGITRKKTFKEVANAVKISASLMGTLMAKRVKATILYASETGRAQSYAQQLGRLFRKAFDPRVLCMDEYDVVSLEHEALVLVVTSTFGNGDPPENGESFAAALMEMSGPYNSSPRPEQHKSYKIRFNSVSCSDPLVSSWRRKRKESSNTDSAGALGTLRFCVFGLGSRAYPHFCAFARAVDTRLEELGGERLLQLGQGDELCGQEEAFRGWAKAAFQASCETFCVGEEAKAAAQDIFSPKRSWKRQRYRLSTQAEGLQLLPGLIHVHRRKMFQATVLSVENLQSSKSTRATILVRLDTAGQEGLQYQPGDHIGICPPNRPGLVEALLSRVEDPPPPTESVAVEQLEKGSPGPPPSWVRDPRLPPCTLRQALTFFLDITSPPSPRLLRLLSTLAEEPSEQQELETLSQDPRRYEEWKWFRCPTLLEVLEQFPSVALPAPLLLTQLPLLQPRYYSVSSAPNAHPGEVHLTVAVLAYRTQDGLGPLHYGVCSTWLSQLKTGDPVPCFIRGAPSFRLPPDPYVPCILVGPGTGIAPFRGFWQERLHDIESKGLQPAPMTLVFGCRCSQLDHLYRDEVQDAQERGVFGRVLTAFSREPDSPKTYVQDILRTELAAEVHRVLCLERGHMFVCGDVTMATSVLQTVQRILATEGDMELDEAGDVIGVLRDQQRYHEDIFGLTLRTQEVTSRIRTQSFSLQERHLRGAVPWAFDPPGPDTPGP
For the molecule B1, the “activity per heme in the fully activated state” value was 85 % of wild type.

Source of the values: patent US20050054615A1, “Calmodulin independent activation of nitric oxide synthase” (Rensselaer Polytechnic Institute, priority 2002, published 2005).
